In article PMC6381839 one finds stoichiometry N data, which are given here for 1 substance.

The test addresses GoxA (glycine oxidase) from Pseudoalteromonas luteoviolacea, glycine-soaked (Gly-GoxA) (Pseudoalteromonas luteoviolacea). Kind of test: crystal structure.

Turning to “GoxA (glycine oxidase) from Pseudoalteromonas luteoviolacea, glycine-soaked (Gly-GoxA) (enzyme)”, the stoichiometry N was 4.
